Earlier results on 2 substances are cited in paper PMC9180016.

In general, pKd refers to the negative decadic logarithm of the Kd, by convention in mol/L. As a reminder, the pKi is the negative decadic logarithm of the Ki, by convention in mol/L.

Data set [1] concerns the target p66Shc (Homo sapiens) (UniProt P29353).
In data set [2] the target is cytochrome c (UniProt P99999).

pKd, pKi: −log10 of the molar value.

UniProt P99999, sequence (P99999 2-105): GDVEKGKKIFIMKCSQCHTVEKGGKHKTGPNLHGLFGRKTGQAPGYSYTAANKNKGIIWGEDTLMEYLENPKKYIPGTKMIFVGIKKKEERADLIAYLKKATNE

For the substance Mortalin (from UniProt P38646), the pKd in data set [1] is 6.07.

Turning to p66Shc (from UniProt P29353), the pKi in data set [2] was 5.84.
